# From patent publication US9175053
# Molecular target: ubiquitylated alpha-synuclein(1-17) model peptide 8 (desulfurized ligation product of synthetic Ub-SR 5 and peptide 7), P37840
protein,measurement,value
recombinant human ubiquitin C-terminal hydrolase L3 (protein) MEGQRWLPLEANPEVTNQFLKQLGLHPNWQFVDVYGMDPELLSMVPRPVCAVLLLFPITEKYEVFRTEEEEKIKSQGQDVTSSVYFMKQTISNACGTIGLIHAIANNKDKMHFESGSTLKKFLEESVSMSPEERARYLENYDAIRVTHETSAHEGQTEAPSIDEKVDLHFIALVHVDGHLYELDGRKPFPINHGETSDETLLEDAIEVCKKFMERDPDELRFNAIALSAA,"enzymatic cleavage of isopeptide (hydrolysis followed by C-4 analytical RP-HPLC, 12 hours at 37 C)",a complete hydrolysis was achieved
